We go through two molecules from US20180265882, “PLANTS WITH INCREASED SEED SIZE” (THE INSTITUTE OF GENETICS AND DEVELOPMENTAL BIOLOGY, published 2018).

Data set [1] concerns the target T1, SOD7 (NGAL2, At3g11580) (Arabidopsis thaliana, UniProt Q8RYD3 SEQ:1-267).
T1 sequence: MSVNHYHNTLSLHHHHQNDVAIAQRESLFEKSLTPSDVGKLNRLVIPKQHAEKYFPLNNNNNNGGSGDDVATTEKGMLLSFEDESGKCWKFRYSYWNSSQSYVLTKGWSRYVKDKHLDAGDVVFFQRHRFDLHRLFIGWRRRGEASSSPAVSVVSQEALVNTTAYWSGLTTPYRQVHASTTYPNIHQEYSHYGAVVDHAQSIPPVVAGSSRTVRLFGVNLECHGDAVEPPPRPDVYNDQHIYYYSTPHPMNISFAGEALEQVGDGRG
Briefly: EMSA; mutated CACTTG, failed to bind. The conditions noted are these: tags: N-terminal MBP fusion (pMAL-C2), expressed in E. coli BL21(DE3), amylose purified; label: biotin. As to the method:
(§1) (A) Expression dynamics of SOD7 and KLU in pER8-SOD7 transgenic plants treated with β-estradiol for 0, 4 and 8 hours. Means were calculated from three biological samples. Values are given as mean±SD. **, P<0.01, compared with the expression level of KLU and SOD7 at 0 hour, respectively (Student's t-test). (B) A 2-kb promoter region of KLU upstream of its ATG codon contains a CACTTG sequence. PF1 and PF2 represent PCR fragments used for ChIP-quantitative PCR analysis. A and A-m indicate the wild-type probe and the mutated probe used in the EMSA essay, respectively. […] Chromatin from 35S:GFP and 35S:GFP-SOD7 transgenic plants was immunoprecipitated by anti-GFP, and the enrichment of the fragments was determined by quantitative real-time PCR. The ACTIN7 promoter was used as a negative control. The fold enrichment was normalized to the ACTIN7 amplicon, set at 1. Means were calculated from three biological samples. Values are given as mean±SD. **, P<0.01, compared with 35S:GFP transgenic plants (Student's t-test). (D) Direct interaction between SOD7 and the KLU promoter determined by EMSA. […] The retarded DNA-protein complex was reduced by competition using the unlabeled probe A.
(§2) The coding sequence of SOD7 was cloned into the NdeI and BamHI sites of the pMAL-C2 vector to generate the construct MBP-SOD7. […]

The target of data set [2] is T1, SOD7 (NGAL2, At3g11580). As to the kind of experiment: EMSA; binding reduced by unlabeled probe A. The conditions noted are these: tags: N-terminal MBP fusion (pMAL-C2), expressed in E. coli BL21(DE3), amylose purified; label: biotin. As to the method: as §1, §2

B1: KLU promoter probe A-m (dsDNA)
DNA 1: TTCTACTAACACCTCTCTCTGTA
DNA 2: TACAGAGAGAGGTGTTAGTAGAA
With B1, in data set [1], the binding result is reported as “no binding”.

B2: KLU promoter probe A (dsDNA)
DNA 1: TTCTACTACACTTGCTCTCTGTA
DNA 2: TACAGAGAGCAAGTGTAGTAGAA
Turning to B2, in data set [2], the binding result is reported as “binds”.
